# Changes are numbered by the printed parent chain. Names and notes keep the numbering of the source.
# T1: Human CD3eg linker (human)
# T1 construct: Single-chain construct; also called recombinant human CD3
# T1 chain: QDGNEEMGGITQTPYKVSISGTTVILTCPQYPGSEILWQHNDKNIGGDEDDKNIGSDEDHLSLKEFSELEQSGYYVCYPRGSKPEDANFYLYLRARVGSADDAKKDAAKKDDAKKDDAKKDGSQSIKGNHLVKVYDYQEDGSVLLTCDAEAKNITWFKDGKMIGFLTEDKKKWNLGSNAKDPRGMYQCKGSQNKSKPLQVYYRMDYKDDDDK
# B1: H183/L072 VL R54P (antibody, name in Kabat numbering, V domains shown)
# VH: QVQLVESGGGLVQPGRSLRLSCAASGFTFSNAWMHWVRQAPGKGLEWVAQIKDKGNAYAAYYAPSVKGRFTISRDDSKNSIYLQMNSLKTEDTAVYYCHYVHYASASTVLPAFGVDAWGQGTTVTVSS
# VL: DIVMTQSPLSLPVTPGEPASISCQASQELVHMNRNTYLHWYQQKPGQAPRLLIYKVSNPFPGVPDRFSGSGSGTDFTLKISRVEAEDVGVYYCAQGTSVPFTFGQGTKLEIK
# B2: H183/L072 VL R54Q (antibody, name in Kabat numbering, V domains shown)
# VH: B1 VH
# VL: B1 VL with P59Q
# B3: H183/L072 VL R54S (antibody, name in Kabat numbering, V domains shown)
# VH: B1 VH
# VL: B1 VL with P59S
# B4: H183/L072 VL R54T (antibody, name in Kabat numbering, V domains shown)
# VH: B1 VH
# VL: B1 VL with P59T
# B5: H183/L072 VL R54V (antibody, name in Kabat numbering, V domains shown)
# VH: B1 VH
# VL: B1 VL with P59V
# B6: H183/L072 VL R54W (antibody, name in Kabat numbering, V domains shown)
# VH: B1 VH
# VL: B1 VL with P59W
# B7: H183/L072 VL S26D (antibody, name in Kabat numbering, V domains shown)
# VH: B1 VH
# VL: B1 VL with S26D, P59R
# B8: H183/L072 VL S26E (antibody, name in Kabat numbering, V domains shown)
# VH: B1 VH
# VL: B1 VL with S26E, P59R
# B9: H183/L072 VL S26F (antibody, name in Kabat numbering, V domains shown)
# VH: B1 VH
# VL: B1 VL with S26F, P59R
# B10: H183/L072 VL S26G (antibody, name in Kabat numbering, V domains shown)
# VH: B1 VH
# VL: B1 VL with S26G, P59R
# B11: H183/L072 VL S26H (antibody, name in Kabat numbering, V domains shown)
# VH: B1 VH
# VL: B1 VL with S26H, P59R
# B12: H183/L072 VL S26I (antibody, name in Kabat numbering, V domains shown)
# VH: B1 VH
# VL: B1 VL with S26I, P59R
# B13: H183/L072 VL S26K (antibody, name in Kabat numbering, V domains shown)
# VH: B1 VH
# VL: B1 VL with S26K, P59R
# B14: H183/L072 VL S26L (antibody, name in Kabat numbering, V domains shown)
# VH: B1 VH
# VL: B1 VL with S26L, P59R
# B15: H183/L072 VL S26M (antibody, name in Kabat numbering, V domains shown)
# VH: B1 VH
# VL: B1 VL with S26M, P59R
# B16: H183/L072 VL S26N (antibody, name in Kabat numbering, V domains shown)
# VH: B1 VH
# VL: B1 VL with S26N, P59R
# B17: H183/L072 VL S26P (antibody, name in Kabat numbering, V domains shown)
# VH: B1 VH
# VL: B1 VL with S26P, P59R
# B18: H183/L072 VL S26Q (antibody, name in Kabat numbering, V domains shown)
# VH: B1 VH
# VL: B1 VL with S26Q, P59R
# B19: H183/L072 VL S26R (antibody, name in Kabat numbering, V domains shown)
# VH: B1 VH
# VL: B1 VL with S26R, P59R
# B20: H183/L072 VL S26T (antibody, name in Kabat numbering, V domains shown)
# VH: B1 VH
# VL: B1 VL with S26T, P59R
# B21: H183/L072 VL S26V (antibody, name in Kabat numbering, V domains shown)
# VH: B1 VH
# VL: B1 VL with S26V, P59R
# B22: H183/L072 VL S26W (antibody, name in Kabat numbering, V domains shown)
# VH: B1 VH
# VL: B1 VL with S26W, P59R
# B23: H183/L072 VL S26Y (antibody, name in Kabat numbering, V domains shown)
# VH: B1 VH
# VL: B1 VL with S26Y, P59R
# B24: H183/L072 VL S52A (antibody, name in Kabat numbering, V domains shown)
# VH: B1 VH
# VL: B1 VL with S57A, P59R
# B25: H183/L072 VL S52D (antibody, name in Kabat numbering, V domains shown)
# VH: B1 VH
# VL: B1 VL with S57D, P59R
# B26: H183/L072 VL S52E (antibody, name in Kabat numbering, V domains shown)
# VH: B1 VH
# VL: B1 VL with S57E, P59R
# B27: H183/L072 VL S52F (antibody, name in Kabat numbering, V domains shown)
# VH: B1 VH
# VL: B1 VL with S57F, P59R
# B28: H183/L072 VL S52G (antibody, name in Kabat numbering, V domains shown)
# VH: B1 VH
# VL: B1 VL with S57G, P59R
# B29: H183/L072 VL S52H (antibody, name in Kabat numbering, V domains shown)
# VH: B1 VH
# VL: B1 VL with S57H, P59R
# B30: H183/L072 VL S52I (antibody, name in Kabat numbering, V domains shown)
# VH: B1 VH
# VL: B1 VL with S57I, P59R
# B31: H183/L072 VL S52K (antibody, name in Kabat numbering, V domains shown)
# VH: B1 VH
# VL: B1 VL with S57K, P59R
# B32: H183/L072 VL S52L (antibody, name in Kabat numbering, V domains shown)
# VH: B1 VH
# VL: B1 VL with S57L, P59R
# B33: H183/L072 VL S52M (antibody, name in Kabat numbering, V domains shown)
# VH: B1 VH
# VL: B1 VL with S57M, P59R
# B34: H183/L072 VL S52N (antibody, name in Kabat numbering, V domains shown)
# VH: B1 VH
# VL: B1 VL with S57N, P59R
# B35: H183/L072 VL S52Q (antibody, name in Kabat numbering, V domains shown)
# VH: B1 VH
# VL: B1 VL with S57Q, P59R
# B36: H183/L072 VL S52R (antibody, name in Kabat numbering, V domains shown)
# VH: B1 VH
# VL: B1 VL with S57R, P59R
# B37: H183/L072 VL S52T (antibody, name in Kabat numbering, V domains shown)
# VH: B1 VH
# VL: B1 VL with S57T, P59R
# B38: H183/L072 VL S52V (antibody, name in Kabat numbering, V domains shown)
# VH: B1 VH
# VL: B1 VL with S57V, P59R
# B39: H183/L072 VL S52W (antibody, name in Kabat numbering, V domains shown)
# VH: B1 VH
# VL: B1 VL with S57W, P59R
# B40: H183/L072 VL S93A (antibody, name in Kabat numbering, V domains shown)
# VH: B1 VH
# VL: B1 VL with P59R, S98A
# B41: H183/L072 VL S93D (antibody, name in Kabat numbering, V domains shown)
# VH: B1 VH
# VL: B1 VL with P59R, S98D
# B42: H183/L072 VL S93E (antibody, name in Kabat numbering, V domains shown)
# VH: B1 VH
# VL: B1 VL with P59R, S98E
# B43: H183/L072 VL S93F (antibody, name in Kabat numbering, V domains shown)
# VH: B1 VH
# VL: B1 VL with P59R, S98F
# B44: H183/L072 VL S93G (antibody, name in Kabat numbering, V domains shown)
# VH: B1 VH
# VL: B1 VL with P59R, S98G
# B45: H183/L072 VL S93H (antibody, name in Kabat numbering, V domains shown)
# VH: B1 VH
# VL: B1 VL with P59R, S98H
# Target: T1, Human CD3eg linker
# Experiment: SPR; fold vs parent H183/L072
row,Binder,fold change of affinity [fold]
1,B1,0.9
2,B2,1.2
3,B3,1.2
4,B4,0.8
5,B5,1.1
6,B6,1.4
7,B7,0.8
8,B8,0.7
9,B9,0.6
10,B10,0.9
11,B11,0.4
12,B12,0.5
13,B13,0.7
14,B14,0.5
15,B15,0.6
16,B16,0.9
17,B17,0.2
18,B18,0.8
19,B19,0.5
20,B20,1.4
21,B21,0.6
22,B22,0.3
23,B23,0.4

row,Binder,fold change of affinity [fold]
1,B24,1.2
2,B25,1
3,B26,1
4,B27,1.6
5,B28,1.4
6,B29,1.7
7,B30,1.5
8,B31,1.9
9,B32,1.6
10,B33,1.4
11,B34,1.5
12,B35,1.4
13,B36,1.8
14,B37,1.3
15,B38,1.6
16,B39,1.4
17,B40,1.1
18,B41,0.7
19,B42,1
20,B43,1
21,B44,0.8
22,B45,0.9
